The target in assay [1] is T1, Mer (Mus musculus, UniProt Q60805). The assay can be described thus: Gas6-stimulated TAM receptor activation (phosphotyrosine IP-immunoblot) in BMDMs, Mer. Format: cell-based. The conditions noted are these: WT-BMDMs pre-treated 30 min, stimulated with 10 nM Gas6 for 10 min; FIG. 4B. On the procedure: Immunoprecipitation and immunoblot analysis was conducted as described above.
(In western blotting, separated proteins are transferred to a membrane and probed.)

The subject of a further assay is EbGP-pseudotyped virus. Format: cell-based, mouse. The conditions noted are these: 300 nM, 24 h post-infection, FIG. 4C.
Assay [2] deals with T1, Mer. Format: cell-based. The conditions noted are these: WT-BMDCs.
Assay [3] addresses Axl (Mus musculus, UniProt Q00993). Format: cell-based.
The test system of assay [4] is Axl. It is filed as cell-based, mouse. The conditions noted are these: 100 nM, BMDCs; FIG. 5B.
The test system of a further assay is DENV. The conditions noted are these: Axl-expressing HEK293 cells; concentration approximately 7-fold higher than 100 nM; Meertens et al. (2012); cited from earlier work.

T1 sequence (Q60805 19-994): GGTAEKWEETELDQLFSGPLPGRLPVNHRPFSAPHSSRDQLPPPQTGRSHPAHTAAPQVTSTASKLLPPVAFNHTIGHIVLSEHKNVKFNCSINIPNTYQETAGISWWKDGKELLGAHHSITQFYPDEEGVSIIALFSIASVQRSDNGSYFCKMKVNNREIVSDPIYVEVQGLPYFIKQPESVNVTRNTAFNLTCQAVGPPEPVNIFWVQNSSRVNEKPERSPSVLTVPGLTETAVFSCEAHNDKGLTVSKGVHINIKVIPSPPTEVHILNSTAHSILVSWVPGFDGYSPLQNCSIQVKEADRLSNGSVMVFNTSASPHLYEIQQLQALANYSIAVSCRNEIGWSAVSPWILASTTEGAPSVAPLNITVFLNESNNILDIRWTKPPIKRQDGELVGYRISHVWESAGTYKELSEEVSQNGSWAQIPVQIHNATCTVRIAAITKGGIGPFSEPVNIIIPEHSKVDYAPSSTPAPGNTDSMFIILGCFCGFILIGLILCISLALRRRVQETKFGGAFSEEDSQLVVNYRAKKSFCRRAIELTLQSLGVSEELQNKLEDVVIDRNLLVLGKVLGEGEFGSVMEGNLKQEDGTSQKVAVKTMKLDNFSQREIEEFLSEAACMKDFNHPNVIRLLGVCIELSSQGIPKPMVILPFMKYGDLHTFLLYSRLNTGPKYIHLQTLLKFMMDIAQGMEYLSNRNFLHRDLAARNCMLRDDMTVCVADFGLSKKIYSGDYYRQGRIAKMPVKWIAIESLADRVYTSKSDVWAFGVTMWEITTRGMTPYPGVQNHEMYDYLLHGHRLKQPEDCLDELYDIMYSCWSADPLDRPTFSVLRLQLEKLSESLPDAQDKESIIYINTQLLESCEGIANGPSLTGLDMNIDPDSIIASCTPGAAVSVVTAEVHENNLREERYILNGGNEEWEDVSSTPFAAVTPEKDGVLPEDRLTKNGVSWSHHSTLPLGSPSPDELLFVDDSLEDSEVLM
Axl (Mus musculus, UniProt Q00993), sequence (Q00993 19-888): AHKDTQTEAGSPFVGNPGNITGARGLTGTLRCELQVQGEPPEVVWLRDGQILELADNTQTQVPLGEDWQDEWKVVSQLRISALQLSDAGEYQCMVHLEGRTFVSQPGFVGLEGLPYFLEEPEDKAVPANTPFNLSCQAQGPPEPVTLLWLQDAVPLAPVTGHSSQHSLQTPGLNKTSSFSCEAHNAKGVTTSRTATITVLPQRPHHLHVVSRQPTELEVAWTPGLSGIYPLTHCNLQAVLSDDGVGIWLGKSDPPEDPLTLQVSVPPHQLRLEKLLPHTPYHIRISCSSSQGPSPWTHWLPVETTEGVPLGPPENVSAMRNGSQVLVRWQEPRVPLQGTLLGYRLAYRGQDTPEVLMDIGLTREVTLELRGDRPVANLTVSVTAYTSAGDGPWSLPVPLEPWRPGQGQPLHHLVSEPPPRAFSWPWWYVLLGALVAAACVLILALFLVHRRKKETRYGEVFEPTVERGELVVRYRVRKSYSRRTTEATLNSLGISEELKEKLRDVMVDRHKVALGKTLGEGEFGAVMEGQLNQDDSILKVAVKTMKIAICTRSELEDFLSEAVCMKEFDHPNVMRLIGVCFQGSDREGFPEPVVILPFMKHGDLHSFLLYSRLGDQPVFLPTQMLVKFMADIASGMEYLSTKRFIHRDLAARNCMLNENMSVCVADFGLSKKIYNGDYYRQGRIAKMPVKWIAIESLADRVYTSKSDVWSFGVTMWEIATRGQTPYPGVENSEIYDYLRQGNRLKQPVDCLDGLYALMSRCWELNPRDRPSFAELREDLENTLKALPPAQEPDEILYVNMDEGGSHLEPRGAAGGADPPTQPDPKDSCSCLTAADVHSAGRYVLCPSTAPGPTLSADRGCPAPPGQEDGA
Axl, sequence (Q00993 19-888): as above

`CCOc1ccn(-c2ccc(F)cc2)c(=O)c1C(=O)Nc1ccc(Oc2ccnc(N)c2Cl)c(F)c1` [BMS-777607]: at Mer [1], the “concentrations effectively inhibiting ligand-dependent receptor activation (Mer)” value fell in the range of 30 to 300 nM. In addition, the “effect on infection deficiency of TAM TKO BMDCs (HIV-1 DNA level)” value in the assay with EbGP-pseudotyped virus (TAM TKO-BMDCs) is “not further reduced”. Moreover, the “susceptibility to virus infection (HIV-1 DNA level) versus untreated WT BMDCs” value with EbGP-pseudotyped virus (WT-BMDCs) is on record as “much less susceptible”.
As for “Protein S: purified human Protein S, TAM ligand (Mer and Tyro3 ligand)”, in the assay with Mer [2] (1 nM hProS plus non-enveloped MAV-1), the “virus-mediated potentiation of ligand-triggered signaling with MAV-1 (Mer)” value is on record as “not seen”. Besides, in the assay with Mer [2] (0.5-2 nM hProS, 5 min, FIG. 2A), the “Mer activation by ligand alone” value is given as “rapid dose-dependent activation”. For the same molecule, in the assay with Mer [2] (ligand plus enveloped VSVg pseudotyped virus, dose-response shifted to lower concentrations), the “effect of VSVg pseudotyped virus on stimulatory effect of ligand (Mer activation)” value is “dramatically potentiated”.
Turning to “Gas6: recombinant mouse Gas6, pan-TAM ligand”, the “potentiation of Gas6-induced Axl activation by bald HIV-1 virions versus VSVg-pseudotyped virions” value with Axl [3] (BMDCs, bald virions lacking viral glycoproteins, FIG. 6B) is given as “equally competent”. Moreover, the “virus-mediated potentiation of ligand-triggered signaling with MAV-1 (Axl)” value with Axl [3] (WT-BMDCs, 1 nM mGas6 plus non-enveloped MAV-1) is on record as “not seen”. For the same molecule, the “Axl activation by ligand alone” value in the assay with Axl [3] (WT-BMDCs, 0.25-1 nM mGas6, 5 min, FIG. 2B) is “rapid dose-dependent activation”. Also, the “effect of VSVg pseudotyped virus on stimulatory effect of ligand (Axl activation)” value with Axl [3] (WT-BMDCs, ligand plus enveloped VSVg pseudotyped virus, dose-response shifted to lower concentrations) is “dramatically potentiated”.

B1: Annexin V: a known PtdSer-binding protein (protein, UniProt P08758 2-320, looked up)
Annexin A5: AQVLRGTVTDFPGFDERADAETLRKAMKGLGTDEESILTLLTSRSNAQRQEISAAFKTLFGRDLLDDLKSELTGKFEKLIVALMKPSRLYDAYELKHALKGAGTNEKVLTEIIASRTPEELRAIKQVYEEEYGSSLEDDVVGDTSGYYQRMLVVLLQANRDPDAGIDEAQVEQDAQALFQAGELKWGTDEEKFITIFGTRSVSHLRKVFDKYMTISGFQIEETIDRETSGNLEQLLLAVVKSIRSIPAYLAETLYYAMKGAGTDDHTLIRVMVSRSEIDLFNIRKEFRKNFATSLYSMIKGDTSGDYKKALLLLCGEDD
Regarding B1, in the assay with Axl [4], the “effect on VSVg-HIV potentiation of the Gas6 dose-response curve for Axl activation” value is recorded as “significantly attenuated”. In the assay on DENV, the “reduction in DENV infection” value is around 60%.

(Values after patent publication US20150164800A1, “REGULATING THE INTERACTION BETWEEN TAM LIGANDS AND LIPID MEMBRANES WITH EXPOSED PHOSPHATIDYL SERINE” (priority 2012, published 2015).)
